Results reported in patent US20120148607A1 (ARGEN X N V, published 2012).
Read-outs that look alike come from different tables or passages of the source.

Experiments:
[1] = biological target: T1, Decoy c-Met (extracellular domain of human c-Met) (human, UniProt P08581 25-932); experiment: SPR: mAb (0.5 µg/ml) kept 1 h at the given temperature, run over a CM-5 chip coupled with 15,000-17,000 RU Decoy c-Met; slope between 100 and 130 s at 30 µl/min in percent of the sample kept at 4 °C
T1 construct: extracellular domain; also called Decoy Met; monomeric Decoy Met
T1 sequence (P08581 25-932): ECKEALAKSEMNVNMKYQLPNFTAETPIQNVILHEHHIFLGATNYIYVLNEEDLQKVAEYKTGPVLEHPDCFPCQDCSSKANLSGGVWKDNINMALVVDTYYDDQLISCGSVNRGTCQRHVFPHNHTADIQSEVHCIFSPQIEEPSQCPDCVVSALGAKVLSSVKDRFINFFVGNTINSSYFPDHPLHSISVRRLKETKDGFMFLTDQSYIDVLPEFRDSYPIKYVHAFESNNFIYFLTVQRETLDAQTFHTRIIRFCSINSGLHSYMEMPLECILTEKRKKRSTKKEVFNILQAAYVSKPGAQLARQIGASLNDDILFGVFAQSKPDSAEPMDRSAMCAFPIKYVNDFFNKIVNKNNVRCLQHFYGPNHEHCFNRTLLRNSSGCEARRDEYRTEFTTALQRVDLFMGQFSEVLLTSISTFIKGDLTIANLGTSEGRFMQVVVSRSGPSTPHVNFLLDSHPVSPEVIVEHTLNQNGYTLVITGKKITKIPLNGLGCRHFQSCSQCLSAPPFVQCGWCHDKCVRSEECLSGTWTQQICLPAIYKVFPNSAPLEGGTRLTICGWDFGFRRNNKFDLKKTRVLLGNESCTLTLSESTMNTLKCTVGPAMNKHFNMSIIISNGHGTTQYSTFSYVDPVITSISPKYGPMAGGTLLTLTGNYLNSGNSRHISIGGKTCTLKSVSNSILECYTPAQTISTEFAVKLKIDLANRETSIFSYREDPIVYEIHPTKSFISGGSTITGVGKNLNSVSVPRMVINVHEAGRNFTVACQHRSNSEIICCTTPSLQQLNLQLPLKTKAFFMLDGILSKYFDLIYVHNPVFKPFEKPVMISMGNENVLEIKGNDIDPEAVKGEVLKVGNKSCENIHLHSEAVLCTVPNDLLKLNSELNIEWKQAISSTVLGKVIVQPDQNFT

[2] = biological target: T1, Decoy c-Met (extracellular domain of …); experiment: binding ELISA, human c-Met (Decoy)
[3] = biological target: T2, Rhesus (Maccaca mulatta, US20090191580-5) c-Met ECD (Rhesus (Maccaca mulatta)); experiment: binding ELISA, Rhesus c-Met ECD immobilised (1 µg/ml)
T2 construct: extracellular domain; also called Rhesus c-Met ECD; Rhesus ECD
Protocol: Cross reactivity to Rhesus (Maccaca mulatta, US20090191580_{—}5) c-Met ECD and mouse c-Met (R&D systems cat no: 527-ME) was performed in a binding ELISA. Rhesus ECD was immobilized in PBS (1 μg/ml) on a 96-well maxisorb plate and incubated at 4° C. over night. After blocking with 1% casein in PBS, the antibodies in dilutions starting with 10 μg/ml were added and allowed to bind for 1 h at room temperature. The plate was washed and a goat anti-human Fcγ antibody (Jackson) was added and incubated for 1 h at room temperature. After washing, TMB was added and the plate read at 620 nm

[4] = biological target: T1, Decoy c-Met (extracellular domain of …); experiment: ELISA: c-Met ectodomain coated at 1 µg/ml on maxisorb plate; mAb in three-fold dilutions from 1 µg/ml, 1 h RT; HRP-conjugated Protein A, TMB, OD 450
c-Met SEMA ectodomain [5] = biological target: T3, c-Met SEMA ectodomain (human, UniProt P08581 27-515); experiment: as above
T3 construct: domain: SEMA; also called SEMA domain
T3 sequence (P08581 27-515): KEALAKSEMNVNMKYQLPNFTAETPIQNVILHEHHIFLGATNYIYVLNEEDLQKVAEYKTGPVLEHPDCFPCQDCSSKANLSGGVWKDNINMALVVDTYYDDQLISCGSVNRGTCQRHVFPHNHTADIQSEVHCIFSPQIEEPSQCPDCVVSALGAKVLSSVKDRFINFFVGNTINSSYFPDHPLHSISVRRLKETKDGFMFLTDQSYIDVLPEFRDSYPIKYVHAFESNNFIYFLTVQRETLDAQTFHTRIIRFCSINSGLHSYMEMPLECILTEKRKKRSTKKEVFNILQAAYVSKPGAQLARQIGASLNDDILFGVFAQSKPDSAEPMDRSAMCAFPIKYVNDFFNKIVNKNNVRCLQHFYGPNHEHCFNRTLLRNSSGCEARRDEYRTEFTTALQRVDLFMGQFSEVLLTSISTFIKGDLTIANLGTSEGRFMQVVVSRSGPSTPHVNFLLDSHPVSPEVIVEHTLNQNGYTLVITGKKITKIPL

[6] = biological target: T4, c-Met SEMA-PSI ectodomain (human, UniProt P08581 25-562, limits assumed); experiment: as above
T4 construct: domain: SEMA-PSI
T4 sequence (P08581 25-562 limits assumed): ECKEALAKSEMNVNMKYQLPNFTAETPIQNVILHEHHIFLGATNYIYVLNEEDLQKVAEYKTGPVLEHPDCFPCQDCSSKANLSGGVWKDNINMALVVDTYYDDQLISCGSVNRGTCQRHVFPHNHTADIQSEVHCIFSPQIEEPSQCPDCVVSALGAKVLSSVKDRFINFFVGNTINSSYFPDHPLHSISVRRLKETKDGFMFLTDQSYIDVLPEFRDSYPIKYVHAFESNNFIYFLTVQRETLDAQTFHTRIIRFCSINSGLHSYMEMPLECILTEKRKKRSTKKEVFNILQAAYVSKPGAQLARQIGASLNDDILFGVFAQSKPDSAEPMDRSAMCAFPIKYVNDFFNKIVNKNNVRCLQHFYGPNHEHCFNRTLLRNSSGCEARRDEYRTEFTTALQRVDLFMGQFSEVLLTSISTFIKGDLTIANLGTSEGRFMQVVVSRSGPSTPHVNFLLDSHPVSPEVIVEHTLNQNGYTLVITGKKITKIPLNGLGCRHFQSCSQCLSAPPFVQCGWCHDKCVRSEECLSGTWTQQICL

[7] = biological target: T5, recombinant dimeric c-Met (R&D systems, 358-MT/CF) (human, UniProt P08581 25-932); experiment: competition ELISA: recombinant dimeric c-Met (100 ng/ml) captured by coated mouse anti-His antibody; antibody dilutions 30 min, then 25 ng/ml N-terminally biotinylated HGF (the competitor); strep-HRP, TMB, 620 nm; percent competition against the controls
T5 construct: Bought product; also called Fc-Met; recombinant c-Met
T5 sequence (P08581 25-932 limits assumed): as the sequence (P08581 25-932) above
Protocol: (§1) Competition with N-terminally biotinylated HGF for binding to immobilized c-Met was performed using an ELISA-based competition assay. Five μg/ml mouse anti-His antibodies (Serotech) was immobilized on a maxisorb plate and, after blocking with 1% casein in PBS for 2 h, 100 ng/ml recombinant dimeric c-Met was added and incubated for 1 h at room temperature. After washing, dilutions of the antibodies were added and allowed to bind to the captured c-Met for 30 minutes, before 25 ng/ml N-terminally biotinylated HGF (R&D systems, 294-HGN/CF) was added. Biotinylated HGF was incubated at room temperature for 1 h before washing. Horseradish-conjugated streptavidin (strep-HRP) was added and incubated for an additional hour. TMB was added and the plate read at 620 nm. An isotype control (hIgG1λ) was included as a control as well as murine 5D5 antibody. Competition was expressed as percentage competition as compared to the controls (strep-HRP only or hIgG1λ) and plotted against the concentration of antibodies. An IC₅₀ was calculated using GraphPad Prism (Table 10). Antibodies 13E6 and 20A11 only displaced HGF partially (about 50%), which may be related to the epitope these two mAbs recognize on the c-Met.

c-Met SEMA ectodomain [8] = biological target: T3, c-Met SEMA ectodomain; experiment: ELISA on immobilised c-Met ectodomains
[9] = biological target: T4, c-Met SEMA-PSI ectodomain; experiment: ELISA on immobilised c-Met ectodomains
[10] = biological target: T6, c-Met SEMA-PSI-IPT1-2 ectodomain (human, UniProt P08581 25-741, limits assumed); experiment: ELISA on immobilised c-Met ectodomains
T6 construct: domain: SEMA-PSI-IPT1-2; also called IPT1-2 (as recognised domain)
T6 sequence (P08581 25-741 limits assumed): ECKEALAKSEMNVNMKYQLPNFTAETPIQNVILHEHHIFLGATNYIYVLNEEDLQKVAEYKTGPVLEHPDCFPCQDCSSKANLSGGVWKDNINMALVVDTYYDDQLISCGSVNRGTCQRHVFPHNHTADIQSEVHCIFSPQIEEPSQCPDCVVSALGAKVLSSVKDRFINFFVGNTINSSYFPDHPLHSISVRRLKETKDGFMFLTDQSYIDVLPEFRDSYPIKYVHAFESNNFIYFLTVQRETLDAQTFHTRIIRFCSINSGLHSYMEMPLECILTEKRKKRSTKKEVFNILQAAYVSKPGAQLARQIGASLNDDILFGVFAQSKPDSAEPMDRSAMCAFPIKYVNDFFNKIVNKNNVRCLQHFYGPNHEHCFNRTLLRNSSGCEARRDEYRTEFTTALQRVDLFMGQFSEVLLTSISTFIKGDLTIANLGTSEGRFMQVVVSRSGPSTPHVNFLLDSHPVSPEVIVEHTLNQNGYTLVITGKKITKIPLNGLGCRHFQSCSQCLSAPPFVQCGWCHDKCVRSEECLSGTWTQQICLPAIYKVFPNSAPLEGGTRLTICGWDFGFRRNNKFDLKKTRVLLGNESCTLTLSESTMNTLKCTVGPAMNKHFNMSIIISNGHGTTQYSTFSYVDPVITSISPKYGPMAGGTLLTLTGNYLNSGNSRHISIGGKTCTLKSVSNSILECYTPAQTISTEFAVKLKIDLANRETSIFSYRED

c-Met IPT3-4 ectodomain = biological target: T7, c-Met IPT3-4 ectodomain (human, UniProt P08581 742-932, limits assumed); experiment: ELISA on immobilised c-Met ectodomains
T7 construct: domain: IPT3-4
T7 sequence (P08581 742-932 limits assumed): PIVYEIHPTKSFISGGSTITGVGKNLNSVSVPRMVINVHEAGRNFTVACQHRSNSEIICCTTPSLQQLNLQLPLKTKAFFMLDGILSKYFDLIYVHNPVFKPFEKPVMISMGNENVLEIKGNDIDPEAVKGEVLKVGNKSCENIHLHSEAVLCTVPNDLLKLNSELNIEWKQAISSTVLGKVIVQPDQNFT

[11] = biological target: T8, human c-Met ECD (aa 25-932) with His tag (human, UniProt P08581 25-932); experiment: ELISA: 200 ng of the c-Met ECD protein coated on maxisorb plates; mAb dilutions 1 h RT; HRP-conjugated goat anti-human antibody, TMB, OD 620 nm
T8 construct: range 25-932; Soluble protein from HEK293 cells; also called human c-Met (WT); not shown: His tag
T8 sequence (P08581 25-932 limits assumed): as the sequence (P08581 25-932) above

[12] = biological target: T1, Decoy c-Met (extracellular domain of …); experiment: SPR: mAb (0.5 µg/ml) kept 1 h at the given temperature, run over a CM-5 chip coupled with 15,000-17,000 RU Decoy c-Met; slope between 100 and 130 s at 30 µl/min in percent of the sample kept at 4 °C; remark: listed apart in the source
[13] = biological target: T5, recombinant dimeric c-Met (R&D systems, …); experiment: competition ELISA, mAb against 25 ng/ml biotinylated HGF on captured dimeric c-Met
Protocol: as §1

B1: 55A12-54E (antibody, V domains shown)
VH: QVQLVESGPGLVKPSQTLSLTCTVSGGSISTNYYYWSWIRQSPGKGLEWIGVIAYEGSTDYSPSLKSRVTISRDTSKNQFSLKLSSVTAEDTAVYYCARDVRVIATGWATANALDAWGQGTLVTVSS
VL: QSALTQPPSVSGSPGQSVTISCAGTSSDVGYGNYVSWYQQPPGTAPKLLIFAVSYRASGVPDRFSGSKSGNTASLTISGLQAEDEADYYCASYRSSNNAAVFGGGTKLTVL
notes: also called germlined variant of 36C4
binding result [1]: binds

B2: 40B8 mAb (antibody, V domains shown)
VH: EVQLVQPGAELRNPGASVKVSCKASGYTFTNYVIDWVRQAPGQGLEWMGRIDPENGGTRYAQKFQGRVTFTADTSTSTAYVELSNLRSEDTAVYYCARLEDYELAYDYWGQGTQVTVSS
VL: DIVMTQTPSSVTASAGEKVTINCKSSQSVLLSSNQKNYLAWYQQRLGQSPRLLIYWASTRESGVPDRFSGSGSTTDFTLTISSFQPEDAAVYYCQQGVSFPLTFGQGTKVELK
EC50 [2]: 0.14 nM
EC50 [3]: 0.13 nM
EC50 (read off the curve) [4]: ~0.03 µg/mL
binding result (c-Met SEMA ectodomain [5]): no binding (tested: 1000 ng/ml)
binding result [6]: no binding (tested: 1000 ng/ml)
IC50 (read off the curve) [7]: ~0.08 nM

B3: 13E6 mAb (antibody, V domains shown)
VH: QVQLQESGGDLVQPGGSLRLSCAASGFTFDDYVMNWVRQAPGKGLEWISAINWNGGSTYYAESMKGRFTISRDNAKNTLYLQMYSLQSDDTAVYYCVKDTVVSGNGYWGQGTQVTVSS
VL: QSVLTQPPSVSGTLGKTVTISCAGTSSDIGDYNYVSWYQQLPGTAPKLLIYDVNKRASGIPDRFSGSKSGNTASLSISGLQSEDEADYYCASYRSRNDYAFGGGTKLTVL
binding result (c-Met SEMA ectodomain [8]): no binding (tested: 1 µg/ml)
binding result [9]: no binding (tested: 1 µg/ml)
binding result [10]: no binding (tested: 1 µg/ml)
binding result (c-Met IPT3-4 ectodomain): no binding (tested: 1 µg/ml)
EC50 [2]: 0.19 nM
EC50 [3]: 0.19 nM
EC50 (read off the curve) [11]: ~1 nM

B4: 56F3 (antibody, V domains shown)
VH: EVQLVQPGAEVKKPGASVKVSCKASGYIFTMNSIDWVRQAPGQGLEWMGRIDPEEGGTKYAQKFQGRVTMTADTSTSTAYMELSSLRSDDTAVYYCARVDDYYLGYDYWGQGTQVTVSS
VL: DIVMTQSPDSLAASLGERVTINCKSSQSVLFSSNQKNYLAWYQQRPGQSPKLLIYWASIRESGVPDRFSGSGSGTDFTLTISSLQAEDVAVYYCQQGYSFPYSFGSGTRLEIK
notes: also called germlined variant of 48A2
binding result [12]: binds

B5: 20A11 mAb (antibody, V domains shown)
VH: QVQLVESGGGLVQPGGSLRLSCAASGFTFDDYAMSWVRQAPGKGLEWVSAISWNGSSTYYAESMKGRFTISRDNAKNTLYLQMNSLKSEDTAVYYCAKDLIGSHDYWGQGTQVTVSS
VL: QAVLTQPPSVSGTLGKTLTISCAGTSSDVGYGNYVSWYQQLPGTAPKLLIYAVSTRASGIPDRFSGSKSGNTASLTISGLQSEDEADYYCASYRSSNNYAFGAGTKLTVL
binding result (c-Met SEMA ectodomain [8]): no binding (tested: 1 µg/ml)
binding result [9]: no binding (tested: 1 µg/ml)
binding result [10]: no binding (tested: 1 µg/ml)
binding result (c-Met IPT3-4 ectodomain): no binding (tested: 1 µg/ml)
EC50 [2]: 4.3 nM
EC50 [3]: 3.4 nM

B6: 12G4 mAb (antibody, V domains shown)
VH: QLQLVESGGGMAQPGGSLKLSCAASGFTFDDYAMTWVRQAPGKGLEWLSTISWNDINTYYAESMKDRFTISRDNAKNTLYLQMNSLESEDTAVYYCAKRRDNYYGTSGEYDYWGQGTQVTVSS
VL: QSALTQPPSVSGTLGKTVTISCAGTSSDIGNYNYVSWYQQLPGTAPKLLIYEVNKRPSGIPDRFSGSKSGNTASLSISGLQSEDEADYYCASYRSSNNVVFGGGTKLTVL
EC50 [2]: 0.42 nM
EC50 [3]: 0.34 nM
IC50 [13]: 0.26 nM

B7: 20F1 mAb (antibody, V domains shown)
VH: EVQVQESGPGLVKPSQTLSLTCTVSGGSMTGNYYAWSWIRQPPGKGLEWMGVIAYDGSTYYSPSLKSRTSISRDTSKNQFSLQLSSVSPEDTAVYYCARGPGWYSGSRNDYWGQGTQVTVSS
VL: QSALTQPPSVSGSPGKTVTISCTGTNSDVGYGNYVSWYQQLPGMAPKLLIYDVNRRASGIADRFSGSKSGNTASLTISGLQSEDEGDYHCASYRSANNAVFGGGTHLFVL
IC50 [13]: 0.36 nM
